{
  "source": "paper PMC12272874",
  "about": "“The common homocystinuria-associated P1173L variant of human methionine synthase impairs reductive methylation” (The Journal of Biological Chemistry, 2025)",
  "binders": {"B1": {"name": "Human methionine synthase reductase (MTRR), full-length recombinant (enzyme, UniProt Q9UBK8-2 1-698, looked up)", "chain": "MRRFLLLYATQQGQAKAIAEEICEQAVVHGFSADLHCISESDKYDLKTETAPLVVVVSTTGTGDPPDTARKFVKEIQNQTLPVDFFAHLRYGLLGLGDSEYTYFCNGGKIIDKRLQELGARHFYDTGHADDCVGLELVVEPWIAGLWPALRKHFRSSRGQEEISGALPVASPASSRTDLVKSELLHIESQVELLRFDDSGRKDSEVLKQNAVNSNQSNVVIEDFESSLTRSVPPLSQASLNIPGLPPEYLQVHLQESLGQEESQVSVTSADPVFQVPISKAVQLTTNDAIKTTLLVELDISNTDFSYQPGDAFSVICPNSDSEVQSLLQRLQLEDKREHCVLLKIKADTKKKGATLPQHIPAGCSLQFIFTWCLEIRAIPKKAFLRALVDYTSDSAEKRRLQELCSKQGAADYSRFVRDACACLLDLLLAFPSCQPPLSLLLEHLPKLQPRPYSCASSSLFHPGKLHFVFNIVEFLSTATTEVLRKGVCTGWLALLVASVLQPNIHASHEDSGKALAPKISISPRTTNSFHLPDDPSIPIIMVGPGTGIAPFIGFLQHREKLQEQHPDGNFGAMWLFFGCRHKDRDYLFRKELRHFLKHGILTHLKVSFSRDAPVGEEEAPAKYVQDNIQLHGQQVARILLQENGHIYVCGDAKNMAKDVHDALVQIISKEVGVEKLEAMKTLATLKEEKRYLQDIWS", "notes": "Methionine synthase reductase (MTRR), human, full length; purified by the same protocol as ΔCMTRR; source: E. coli BL21(DE3), purified (Glutathione Sepharose 4B, thrombin cleavage, size exclusion chromatography); not shown: GST, N-terminal, cleaved"}},
  "key": {"[1]": {"target": "T1, P1173L variant of human methionine synthase (MTR), full-length recombinant (human, UniProt Q99707 1-1265, P1173L)", "T1 construct": "Methionine synthase (MTR), human, full length, clinical missense variant P1173L made from the wild-type pET28-thrombin-MTR construct; Homocystinuria-associated variant that occurs in patients; Same expression and purification as the wild type; Loaded with cob(II)alamin or MeCbl; also called P1173L MTR; P→L; source: E. coli BL21 (DE3), co-expressed with GST-tagged ΔNMMADHC, purified (Ni-NTA, size …)", "T1 sequence (Q99707 whole entry P1173L)": "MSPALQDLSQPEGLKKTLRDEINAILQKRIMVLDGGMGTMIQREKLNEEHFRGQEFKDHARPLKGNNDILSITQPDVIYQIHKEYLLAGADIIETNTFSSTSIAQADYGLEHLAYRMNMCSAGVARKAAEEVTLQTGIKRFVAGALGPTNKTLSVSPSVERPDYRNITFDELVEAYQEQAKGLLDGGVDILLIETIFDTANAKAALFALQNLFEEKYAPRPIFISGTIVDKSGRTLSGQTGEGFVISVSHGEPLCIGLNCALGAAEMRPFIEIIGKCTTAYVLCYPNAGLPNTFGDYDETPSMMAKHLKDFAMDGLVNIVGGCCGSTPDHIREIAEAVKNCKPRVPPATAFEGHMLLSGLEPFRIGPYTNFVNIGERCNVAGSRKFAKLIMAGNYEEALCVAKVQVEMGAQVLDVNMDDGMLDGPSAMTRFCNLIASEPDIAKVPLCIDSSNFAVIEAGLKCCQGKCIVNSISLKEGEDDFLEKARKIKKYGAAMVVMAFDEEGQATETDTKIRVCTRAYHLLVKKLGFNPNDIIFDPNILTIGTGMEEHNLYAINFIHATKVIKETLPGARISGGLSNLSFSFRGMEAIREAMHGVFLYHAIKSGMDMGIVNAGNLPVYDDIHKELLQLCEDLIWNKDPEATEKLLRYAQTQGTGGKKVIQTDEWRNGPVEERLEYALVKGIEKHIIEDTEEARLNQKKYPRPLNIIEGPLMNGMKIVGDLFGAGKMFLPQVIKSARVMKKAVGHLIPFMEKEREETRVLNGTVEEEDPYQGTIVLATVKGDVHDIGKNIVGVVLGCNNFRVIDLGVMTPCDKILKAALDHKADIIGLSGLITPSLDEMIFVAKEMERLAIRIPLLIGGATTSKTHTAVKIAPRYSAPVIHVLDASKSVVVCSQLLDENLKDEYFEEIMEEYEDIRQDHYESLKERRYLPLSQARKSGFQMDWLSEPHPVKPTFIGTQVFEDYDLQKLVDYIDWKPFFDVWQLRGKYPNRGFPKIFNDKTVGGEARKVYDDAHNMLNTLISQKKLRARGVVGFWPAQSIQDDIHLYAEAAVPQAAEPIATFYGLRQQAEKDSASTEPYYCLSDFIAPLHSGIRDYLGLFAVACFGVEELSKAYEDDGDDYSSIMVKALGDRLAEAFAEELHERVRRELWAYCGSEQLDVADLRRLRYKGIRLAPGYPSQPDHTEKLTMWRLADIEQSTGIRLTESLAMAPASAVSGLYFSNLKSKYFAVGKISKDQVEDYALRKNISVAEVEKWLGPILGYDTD", "assay": "native gel or EMSA; 15 μM cob(II)alamin-bound wild-type or P1173L MTR mixed with equimolar MTRR in Buffer C (100 mM HEPES, pH 7.4, 150 mM KCl, 10% glycerol), room temperature 5 min; 4–15% gradient gel, 4 °C", "conditions": "both partners purified"}, "[2]": {"target": "T2, Human methionine synthase (MTR), wild-type, full-length recombinant (human, UniProt Q99707 1-1265)", "T2 construct": "Methionine synthase (MTR), human, full length, 140.5 kDa; codon-optimised synthetic gene in pET-28 between BamH1 and Xho1, thrombin cleavage site at the N-terminus; Monomer fraction of the size exclusion column was used; Loaded with cob(II)alamin (native gel, stopped-flow, EPR) or MeCbl (native gel with substrates); also called wild-type MTR; WT; source: E. coli BL21 (DE3), co-expressed with …", "assay": "native gel or EMSA; 15 μM cob(II)alamin-bound wild-type or P1173L MTR mixed with equimolar MTRR in Buffer C (100 mM HEPES, pH 7.4, 150 mM KCl, 10% glycerol), room temperature 5 min; 4–15% gradient gel, 4 °C", "conditions": "both partners purified"}},
  "data": [
    {"binder": "B1", "values": [
      {"measurement": "binding result", "setting": "[1]", "result": "binds"},
      {"measurement": "binding result", "setting": "[2]", "result": "binds"}
    ]}
  ]
}
